± gives the standard deviation of the averaged measurements.
Each sequence was assayed on Saccharomyces cerevisiae (assay: protein stability index of tFT-peptide fusion (C-terminal peptide) (PSI (0-1 scale)); higher = more stable (slower turnover)). Settings: genetic background: wild type; temperature: 30 C.
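Further: PSI is a weighted mean of sequencing reads over stability bins, variants kept only with over 10 reads, mCherry proximal and sfGFP distal, peptide attached via GGGS linker.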

Sequence | protein stability index
PARLPSPSHPAS | 0.776 ± 0.063
PARPLSRPPLPP | 0.72 ± 0.052
PARTSAPPSPLI | 0.686 ± 0.0075
PASEVLFMEFVT | 0.753 ± 0.026
PASIVPPPPVPL | 0.777 ± 0.13
PASPFPQTCPPP | 0.737 ± 0.074
PASPHPPSPSPL | 0.604 ± 0.022
PASPPPAPRPPP | 0.65 ± 0.0081
PASPRDPLPRLP | 0.764 ± 0.12
PASYSAPVSLFI | 0.7035 ± 0.002
PATPPFSLPPPH | 0.669 ± 0.025
PAVCIPLPARQL | 0.743 ± 0.026
PCIRRRSISTLP | 0.775 ± 0.11
PCLGATSNTGRY | 0.732 ± 0.045
PCMLSEATQQAH | 0.668 ± 0.049
PCPPLPGILSSL | 0.674 ± 0.035
PCWPARVWVSFL | 0.504 ± 0.013
PDASRRVPPPPD | 0.663 ± 0.066
PDDGLSAPPAAF | 0.722 ± 0.14
PDFPPSRTPPEF | 0.624 ± 0.022
PDGPSIVVPGQG | 0.678 ± 0.017
PDLTVYNLCGGC | 0.774 ± 0.098
PDPPAPLPPHPV | 0.669 ± 0.053
PDRPPVARATRP | 0.719 ± 0.017
PDRPYPPPLVAR | 0.694 ± 0.058
PDSLHTLRPPPP | 0.653 ± 0.022

Sequence | protein stability index
PEDRCLDLLILC | 0.5236 ± 0.004
PEPMYHNSLFRP | 0.737 ± 0.018
PERPDPPVNDRN | 0.62 ± 0.029
PETIIENIMKRR | 0.688 ± 0.22
PFCYALPWAPPR | 0.644 ± 0.076
PFFRASFSGLID | 0.681 ± 0.061
PFIYSLPAPLPF | 0.72 ± 0.035
PFLHQRLLDSVL | 0.726 ± 0.1
PFLLPPLPPGPL | 0.706 ± 0.062
PFLPSPHPSPSS | 0.713 ± 0.022
PFPCPSLPPPFP | 0.716 ± 0.022
PFPFSPPHSLVS | 0.743 ± 0.027
PFPHPPPPSPTP | 0.687 ± 0.021
PFPPPHTPLPPS | 0.791 ± 0.016
PFPPPPRLHLPP | 0.648 ± 0.04
PFPPPSAPPPSP | 0.71 ± 0.015
PFPRPLSPLPFR | 0.75 ± 0.074
PFPSIPLPPPSR | 0.703 ± 0.03
PFQPPSLIPSRH | 0.746 ± 0.026
PFSSPDLLRCPH | 0.752 ± 0.024
PFSVDLPWPPWE | 0.806 ± 0.053
PFSVQLPDVDCL | 0.715 ± 0.16
PFSWRPLSSPTA | 0.757 ± 0.004
PFVIKSWSYVTR | 0.605 ± 0.02
PFVSGLSGQHEQ | 0.637 ± 0.011
PFVSGWEKGRSF | 0.757 ± 0.033

Sequence | protein stability index
PFYTNSSFCSLT | 0.6677 ± 0.00075
PGASAKPHSSAN | 0.712 ± 0.031
PGGQLRSHPPNV | 0.718 ± 0.013
PGIHRPLAVEDL | 0.676 ± 0.032
PGKSGRKLVSSG | 0.681 ± 0.012
PGLDPFHGMNLS | 0.6906 ± 0.0027
PGLQFPIWGVKG | 0.71 ± 0.045
PGPPPGTDAFQH | 0.718 ± 0.12
PGRSMCITLVKT | 0.595 ± 0.0078
PGSADGPATYPL | 0.65 ± 0.03
PGSLVLSVVDLV | 0.683 ± 0.056
PGSQPPFVPPPR | 0.604 ± 0.019
PGSSLAPAPPPP | 0.683 ± 0.0088
PGSYLDAIVYHR | 0.701 ± 0.01
PGTGGHKRASPV | 0.6293 ± 0.0016
PGWGPLVARRFV | 0.735 ± 0.025
PGYFGHVKLSCS | 0.646 ± 0.023
PHAAERRKPCAP | 0.768 ± 0.011
PHAPCPRPSVTV | 0.625 ± 0.086
PHAPHFSRSIPS | 0.745 ± 0.027
PHAPQSPGWLHG | 0.7 ± 0.028
PHASLLPPSLSR | 0.728 ± 0.0085
PHASRRPPTLLC | 0.514 ± 0.01
PHATPPPTRPPS | 0.777 ± 0.062
PHFSSLPWAPPG | 0.749 ± 0.041
PHGSLPTRLPGP | 0.689 ± 0.035

Sequence | protein stability index
PHIRPPQCTRPI | 0.737 ± 0.015
PHLANLFTWSSC | 0.66 ± 0.092
PHLPPLPPAPPP | 0.724 ± 0.12
PHLPPRPFPTAP | 0.757 ± 0.063
PHNPFPTRTPPP | 0.71 ± 0.039
PHNRSNSWPNPR | 0.714 ± 0.054
PHPERLLCPPYP | 0.68 ± 0.024
PHPGQSAPPRPP | 0.654 ± 0.038
PHPPGFGPGRTL | 0.698 ± 0.068
PHPPLPLSPPPP | 0.72 ± 0.0084
PHPPPAPDAPCV | 0.683 ± 0.036
PHPPPLPPLPSP | 0.721 ± 0.053
PHPPPPRPPPRS | 0.642 ± 0.067
PHPSATPTPVPP | 0.7001 ± 0.0017
PHPSPGAALFAN | 0.643 ± 0.019
PHPTLATPPRRR | 0.667 ± 0.096
PHPTTPPAPRPR | 0.728 ± 0.0095
PHRAPPRETRLG | 0.837 ± 0.015
PHSKADISQIGG | 0.653 ± 0.0072
PHTEPVIVACSG | 0.601 ± 0.033
PHTPSRPLSPAP | 0.713 ± 0.063
PILFLGGSMGER | 0.676 ± 0.011
PIPPPPPPPHSP | 0.779 ± 0.043
PIPPPPPPPPDP | 0.652 ± 0.017
PIPPSTRSLHPL | 0.668 ± 0.027
PIQNHRFLPIVL | 0.713 ± 0.036

Sequence | protein stability index
PIRAITQRSDGG | 0.682 ± 0.045
PISIAVPCVLPP | 0.6654 ± 0.00093
PISSYPPLPAPR | 0.718 ± 0.06
PIYQTYSRHSYL | 0.683 ± 0.0089
PKLAELKKISDR | 0.68 ± 0.063
PKLSKLLQHSNV | 0.658 ± 0.048
PLAPPFSPPPPP | 0.645 ± 0.0082
PLAPPPPSSPPV | 0.675 ± 0.083
PLCFSLFFPFRP | 0.657 ± 0.0099
PLCPPPPTSPPP | 0.666 ± 0.031
PLCPPYPPGRVP | 0.6841 ± 0.0021
PLCRPARPRHHS | 0.7256 ± 0.0015
PLCSPALHGPPP | 0.736 ± 0.033
PLCSPPSPASNL | 0.714 ± 0.067
PLDTPYMAYNSD | 0.71 ± 0.033
PLECHTGVLGRL | 0.709 ± 0.0086
PLEKASMTLWGR | 0.691 ± 0.05
PLFAYCLIFPML | 0.533 ± 0.018
PLFGLQTPTLHR | 0.712 ± 0.057
PLFHLYRSSFPF | 0.721 ± 0.029
PLFPRPFPPPRS | 0.717 ± 0.0091
PLFSLVSLLLPI | 0.628 ± 0.036
PLHLPPPFSPRP | 0.7333 ± 0.0063
PLHPLTLPHLPT | 0.665 ± 0.092
PLHSRPTRPKLE | 0.71 ± 0.092
PLIASPQPPFPT | 0.6692 ± 0.0036

Sequence | protein stability index
PLKKLTRIIPKL | 0.747 ± 0.1
PLLALANSPLYR | 0.6708 ± 0.005
PLLCPASIHVTL | 0.679 ± 0.046
PLLEGRRRKSGG | 0.635 ± 0.02
PLLFGGGGVSVL | 0.70247 ± 0.00036
PLLFPSSPLPPS | 0.63 ± 0.036
PLLGLFTRYFDT | 0.7 ± 0.088
PLLLLLPALPPL | 0.679 ± 0.026
PLLPILTSPPRR | 0.71 ± 0.029
PLLPPLSPPLPS | 0.7 ± 0.0078
PLLPPPLFSLLR | 0.681 ± 0.015
PLLPPPPSLRSP | 0.747 ± 0.1
PLLPRPPPLPPP | 0.703 ± 0.055
PLLRPTRLLPET | 0.699 ± 0.093
PLLTPLCSVSHS | 0.689 ± 0.0072
PLNALLHSNPDK | 0.711 ± 0.1
PLPCSPRLRLSF | 0.646 ± 0.036
PLPLFPLPPVAP | 0.66 ± 0.012
PLPLPPLPPPLP | 0.656 ± 0.021
PLPLPPPPHCLS | 0.702 ± 0.027
PLPLSSSLHSQR | 0.702 ± 0.0084
PLPPAARPPSAL | 0.729 ± 0.015
PLPPAPPPPPPP | 0.728 ± 0.029
PLPPLPLAPSLP | 0.708 ± 0.065
PLPPPFLHLPPP | 0.683 ± 0.036
PLPPPGRPPLLP | 0.639 ± 0.12

Sequence | protein stability index
PLPPPPFSVSPP | 0.724 ± 0.012
PLPPPPLPPLPP | 0.702 ± 0.028
PLPPPPRPRLPL | 0.764 ± 0.047
PLPPPPSPLPHF | 0.692 ± 0.013
PLPPPPVPPTPS | 0.606 ± 0.012
PLPPPVPPPPPP | 0.66 ± 0.017
PLPPRLPSPPSS | 0.742 ± 0.044
PLPPRPAPPSSS | 0.681 ± 0.015
PLPPRPPSPPPR | 0.699 ± 0.037
PLPPSPYPSPSP | 0.661 ± 0.028
PLPRLTRPSPPR | 0.681 ± 0.067
PLPRPPPPPPPS | 0.7 ± 0.048
PLPSAPVPPSAS | 0.71002 ± 0.0003
PLQPRVLPSPRR | 0.688 ± 0.0011
PLRISPPPAPHP | 0.7251 ± 0.0025
PLRSFSLRPFPL | 0.775 ± 0.06
PLRVPPPPCSRS | 0.722 ± 0.1
PLSCSPPLLSPS | 0.678 ± 0.0089
PLSLAPPPLPPY | 0.671 ± 0.061
PLSLFPSSQCWS | 0.771 ± 0.038
PLSPPPLPFPLL | 0.589 ± 0.0018
PLSPSAAPSAPS | 0.737 ± 0.1
PLSTCLAARCPL | 0.725 ± 0.085
PLSTFSLSSFTV | 0.691 ± 0.045
PLTFGLGPVNLP | 0.683 ± 0.054
PLTPCPSATPAY | 0.648 ± 0.021

Sequence | protein stability index
PLTPVRCSICSV | 0.64 ± 0.037
PLTRPTDNNPSN | 0.774 ± 0.081
PLVFFAGLFLVD | 0.509 ± 0.041
PLVSGMLTSHLA | 0.6613 ± 0.0014
PLVSPPPLPHRP | 0.69 ± 0.02
PLYLAYKDTLLS | 0.69 ± 0.035
PLYPPLPTSLSS | 0.769 ± 0.027
PLYPPPVNIPPT | 0.81 ± 0.067
PLYSPPPHRYLL | 0.653 ± 0.019
PMLGMSTLGDRF | 0.657 ± 0.038
PMNVSDPRKVGR | 0.556 ± 0.037
PNCAPLTAPRRR | 0.7159 ± 0.0069
PNCTLVDSCWSI | 0.699 ± 0.022
PNPPNSSNPPSP | 0.7013 ± 0.0031
PNSPRCAIASPL | 0.702 ± 0.046
PPAAPPPPPLPP | 0.735 ± 0.039
PPAAPSPPPPRP | 0.719 ± 0.012
PPADKRILQQIR | 0.692 ± 0.039
PPAHPPPRLHPP | 0.541 ± 0.018
PPALHPPPLPPR | 0.646 ± 0.028
